Test results reported in the RNAGym collection of RNA variant scans (doi:10.1073/pnas.2313332121).

B1: TPR t1 (parent)
chain: GACCAAUCUGCCCUCAGAGCUCGAGAACAUCUUCGGAUGCAGAGGAGGCAGGCUUCGGUGGCGCGAUAGCGCCAACGUCCUCAACCUCCAAUGCAUCCCACCACAUGAUGAUGCCUGAAGAGCCUUGGUUUUUUG

Variants of: B1
Experiment: polymerase ribozyme fitness, log enrichment relative to wild type (log ratio); higher = more active; in vitro selection for triplet polymerase activity
In short: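 Fitness measures genotype enrichment against wild-type enrichment on a logarithmic scale, with inverse-variance-weighted averaging of replicates. The logarithm is base 2, and genotypes were kept only with ≥10 input reads and ≥1 read per output in Illumina sequencing. The sequenced libraries came from one triplicate in vitro selection round, including frozen incubation at −7 °C, of PCR-built, transcribed mutant libraries of each subunit of a heterodimeric triplet polymerase ribozyme.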

Variant	polymerase ribozyme fitness (log ratio)
G39U C53U	-0.876
G45A C64U C86U C115A C123G	-1.22
C12U G47U A119C C123A	-2.6
C104U G120U G135U	-0.513
G45U G47U G113A	-3.45
C56G C64U C79A	-1.17
A18U C73U U96G C104U	-2.93
G17U G61A	-2.18
A46U G60C C114A	-2.44
G120C G128U	-0.74
C28U G71A C89A C123G U130C	-3.76
C13U G47A C82G	-2.07
C34U G60U	-3.24
G47U G51U	-4.87
U38A	-0.984
C11U G107A	-6.13
G44C C85U G117A C124A U125C	-1.55
C3U A91U C115U	-1.86
A41G A121U	1.72
U14G G35A A46G U96A C114U	-5.86
G63U G77U U109A G135U	-7.04

Variant	polymerase ribozyme fitness (log ratio)
C28U G52A	-2.18
C11G A26C G60U C97U G120U U132A	-3.92
U7C G42C C72A C88U C115U	-1.49
C22U A43G G61A C115A	-5.11
C49U C80A U81C U106A U112A	-4.56
A16C U132A	-2.47
C15U A50U G71A C89U	-5.22
C11A G36U G48C C62G C115A G120C	-4.4
C12G C20U A66U G69A	-5.04
G51A C86U C94G G120C	-6.29
C8A C72U U78A G93C C101A	-1.75
C4A G36C C104U A119G A121U G128U U129A	0.665
C12G G45A A84C U106G	-1.76
A5U A6C G57U C123U	0.75
G63A G127C	-1.62
G39C C70U U112G	-2.08
G39A U78A A108G A111C	-1.88
G19C U81C C124G	-0.981
U14A G60C C97G C123A	-5.56
G63U G77A	-3.45
C13U G71U	-0.508

Variant	polymerase ribozyme fitness (log ratio)
C8A A16C G39U C102A	-4.53
U7G G10A C49U U112G G135U	-0.92
C13U C86G	-0.454
C114A U133G	-1.84
C22G G48C C72U C124U	-2.66
C13G C34A G39A	-5
G63C U129G	-1.93
A5C A46C C56A C102U	-3.74
C13G C64U C73A G120A A121U	-0.317
A6G C13U C72U C102U G122A	-2.6
G61A G63U	-3.75
G10U G42U A91C U106A U112A	-0.271
C11A U96G G113C U130A	-5.5
A26U U126G	-4.96
C3G U7A G63C A95C	-2.41
A6U G45U C49U C76G	-0.941
A18C G42C G47A	-2.35
G69U A74U G135C	-0.511
C22A A37G U81A A121C	-6.04
G60C U116C	-1.73
U32C G69A C76G G77C	-4.8

Variant	polymerase ribozyme fitness (log ratio)
G47U U55A C70A C94G	-4.15
C56G A66U	-1.02
G39U G60C G61A A118U	-1.64
G60U G61A U78G A84U C86A	-3.37
C28A C88U C101U	-5.29
G61C C80U G120U	-7.22
G61A C99U	-2.85
U7G G10U G42U A46C U54A G57A C101U C114U	-4.29
A41U A46U C72U A83C U109A	-7.09
C64A A83G U92G C99U C104A	-8.04
C62G C115U	-2.93
A66C U78C C101G C123A U132A	-3.72
A37G G120A	0.248
C89G G113C	-3.04
C12G C62G A75G U87C	-3.99
C86A U109A	-5.39
C20A C64G U92C A121C	-6.25
A66G U87A	-0.982
A2U G19A	-4.15
C104U G120U	-0.787
A6U G36C G44A G77U C123G	-0.241
